Measurements as given in the DeepSol protein solubility set.

Experiment: soluble on expression in E. coli; label from the status in PepcDB or PDB records

Sequence	soluble on expression in E. coli
MLVPSANRWVPKFKSKKTEKKLAPDGKTELLDKDEVERKMKSLLNKLTLEMFDAISSEILAIANISVWETNGETLKAVIEQIFLKACDEPHWSSMYAQLCGKVVKELNPDITDETNEGKTGPKLVLHYLVARCHAEFDKGWTDKLPTNEDGTPLEPEMMSEEYYAAASAKRRGLGLVRFIGFLYRLNLLTGKMMFECFRRLMKDLTDSPSEETLESVVELLNTVGEQFETDSFRTGQATLEGSQLLDSLFGILDNIIQTAKISSRIKFKLIDIKELRHDKNWNS	soluble
MLYPNERKSSVHAIPYQDQLKQVQSAVDEFQKANGGLLPIQTKDMSTPLYQKYPIDFNRLAPRYIAEPPSTAFESGGDYQYVLVDVENDPTVKLIDLKMAEKIRDVKLRIQMYRQEHQYPPYKDVLSRDLFTLDEKKLGDGSSLTVTSPISGNSLPLMIDGDGEIYADYRTELASCLKKSKKTFKPGTEIQDMIWHETPFVPAFSVKYTVNDKQEPVFLENDMKKELEHHHHHH	soluble
MMEHDRARTRAWVLHPELKSDLDRRDPVPALEEAVALAAALPDLDVVGSGIVRLPKPHPGHLFGSGKVEELATLFHDNEVELVLIDGPLSPVQQRNLEKAWKVKILDRTGLILEIFSDRARTREGVLQVEMAALSYQRTRLVRAWTHLERQRGGLGFVGGPGETQIEADRRAIDEQLVRLKRQLDKVVKTRELHRKARAKVPYPIVALVGYTNAGKSTLFNRLTGAEVMAKDMLFATLDPTMRRVVLPDGPEVILSDTVGFISDLPTELVAAFRATLEEVLAADLIVHVRDIHHAATEEQARDVETILASLGVDEGRPKFEVWNKVDLLDPDKRAALRERTARDPSLFAVSAVTGEGLESLLTAIAEALAETRSEAVLTLGFADGKRRAWLFAQDVVQAEEQSDDGFRLTVLWTPRQAARYAALLEHHHHHH	soluble
MMETEVAVVPLTPLDIHNKEFSRGFRGYDEDEVNEFLDQVIKDYEMLIREKKQLEEKVAELTEKLNYFANIEETLNKSILVAQEAAEEVKRNAQKEAKLIIKEAEKNAERIISDALAKSRKIALEIEELKRQSKVFRARFRMLVEAQLDMINSRDWDELMEYEAPDLEEGAREPLSQP	not soluble
MMIKVGAAINGTDSPKAMKREHDNDDGDRTGRHKRPKTDGFTEAIQQGKFEVRLLVSSKSAGAIIGKGGENIKRLRAEFNAHVQVPDSNTPERVCTVTADEKTVLNILKDVLPRLEDNFSERDPCEVRMLVHQSHAGALIGRNGSKIKELREKCSARLKIFTGCAPGSTDRVLITSGEQKNVLGIIEEVMKELKEIPIKGSATPYLPAFNYDPSNISDYGGFPGNMPAGGPPNNRGPAPQRGGQGPPGGPRSYGGAITQGGGQRSFEAGDFQQFRGGPGPVPGYAMSAPGYPPQQGQFGAPNNAGYGYGPGGGGPVTTAQVTIPSDLGGTIIGRGGERIARIRQESGAQITLEQSNGQPERIITIKGTEQQIHSAQYLLQQCVRNSTQGRERFGGSV	not soluble
MMINIQEDKLVSAHDAEEILRFFNCHDSALQQEATTLLTQEAHLLDIQAYRAWLEHCVGSEVQYQVISRELRAASERRYKLNEAMNVYNENFQQLKVRVEHQLDPQNWGNSPKLRFTRFITNVQAAMDVNDKELLHIRSNVILHRARRGNQVDVFYAAREDKWKRGEGGVRKLVQRFVDYPERILQTHNLMVFL	soluble
MMINTQEDKLVSAHDAEEFHRFFVGHDSDLQQEVTTLLTREAHLLDIQAYKAWLEHFVAPEIKYQVISRELRSTSERRYQLNDAVNLYNENYQQLKVRVEHQMDPQNWANNPKIRFTRFVTNVTAAKDKSAPEILHVRSNLILHRARRENQVDVFYATREDKWKRIEGGGIKLVERFVDYPERIPQTHNLLVFL	soluble
MMKEASEPLASVTSINKQDSKVQDGEIRKEKIGTITPSKQHSSVHFFPKIMDSDSTTLIPLSRSFSQEMPIGFYQITSTQNSSTLSSRGQLASKSTILSCSHKDSSLGKQSTSSMVPRRQPQSSSDVDTYTFGNGEDYFLSLFGESKKLTAHTPQAENVSEHLSVILEEVGQFTSSSLGEIKIAEVNIKGLFVRLVNSSNEKEVEIGNHILQQNVNGHAVSLYQFPDNITLQANSTVTVWAAASEAKPQPPTDFVWEEQSKFRSSPDCTTILCKPNGEAIAWYTPIHWKQAWEKLETDIEFERCSVVVPSMRNHMFGWITASVSSTNEEKEEPIQKTPSQVYPVLYREKEIPPTVLPNKSPWCRNPNTSPHPYSSLIDSHDSDISESSLDTQLKPQPTKPKPDPGTKKKKAKS	soluble
MMKLNLFINANETESYIDIHAPKMNDHVQSIINAVNDLDKSHTLVGYIDKEIHIINVSDVITFQVINKNVTAITSNQKFKLKLRLYELEKQLPQHFIRISKSEIVNKYYIEKLLLEPNGLIRMYLKDAHYTYSSRRYLKSIKERLSI	not soluble
MMKNPNDIGFIHDISSLDSLRQKAVKEGKDGEQEALHAAARQFESIFTSMMLKSMREANEGFESNIMNSQNEKFYRQMLDEQMASELSANGSMGLADMIVAQLTAGQGNDKSETAMRDAANSAVEYRRVDPKKAREIEKRLIESGELSRTSHTPAKFDSPESFVNSMKPYAEKAAKALGVEPSLLLAQAALETGWGQKVVQNARGSSNNLFNIKADRSWQGDKVTTQTLEFHDNTPVKETAAFRSYSNYQDSFNDYVRFLNDNPRYETALQQRGDSESFIRGIHRAGYATDPTYADKVLQVKQKIESM	not soluble
MMKRARIIYNPTSGRELFKRHLPDVLVRLEKAGYETSCHATEGPGDATKAARQAVLREFDLVVAAGGDGTINEVVNGIADQPYRPKLGVIPVGTTNDFARAIGVPRSIEGACEVIATGEPVPIDIGCVTNEDKTRYFINIAGGGRLTELTYEVPSKLKTMLGQLAYYLKGIEMLPSIKATEAQIEYDGKLFEGEIMMFLVSLTNSVGGFEKLAPDSSLNDGLFDFIIVKKTNLAEFIRLVTLAARGEHINDPHIIYTKANRVKVRSPMQLNLDGEFGGMLPGEFVNLYRHLEVIMPKDKAEQVRTGR	not soluble
MMLITTSHRPTRRTRSFGHDLERVIPNSLYLTRGKKTIQELLMEAYDRGYERLLIINVWKGNPLKMTFIKVHPEDWGYLGYLYLHGVKLQREMGFKGLNPIREDMPLVITTAKRVGLDHLAFAQVFSELTTGKFVPRGDKSLLSIADRYNTDVLAVIERHPRGIVINFYRLDITKDRPVGPLINVKIWIMEDGRRWDYKEAFGIKVPPRRREFEGKRGEGKNSDLEHHHHHH	not soluble
MMNQLRVTRKEPVKIRIQRKTSQNHAKGIEEMEMAVAVGVKMGQDAVEGNWKRKIIPKKTAIREILKSDEEITVRHLKIGLKSRRLPSCLIRKEPKDNNVSYEETGEGEYFEEENRKNSNNANSSNSRNTGRGNKGGKERESLNDNESSNEETEGRRSVKKTNTLNEDNNGNSIRKESNLSNDEETDEVVDTHRINTEDDEEDEEKPPTEKGTPKRKDRKSDSRSTSKGFGSGGRGRAEYTEDGDDDESNRRSVNFEKDGNGRMVKTETERSSTHAQDYDKKGSKKKKHRVSENGSEEEEVSTSFSSSSSKSSSSSSLSRRTTWDGNNNNTNRRRRNRFD	not soluble
MMNTDNRLLTRESSEHIREFFSTVERLSVSMERLFAGRSPAMAGENFYTDRELAEKLKVSRRSLQQYRDSGLLAFTRLGGKILYRSSDIEKLLDGCYREARTRPEEL	not soluble
MMRISEKGITLIKEFEGCSLKAYPDPGTGGDPWTIGYGWTHSVDGKPVKPGMMIDEATAERLLKTGLVGYENDVSRLVKVKLTQGQFDALVSFAYNLGARTLSTSTLLRKLNAGDYAGAADEFLRWNKAGSKVLNGLTRRREAERALFLS	not soluble
MMSDRHFQGNRIRLRAPEPEDLEVMFRFENATDVWEMSNTTGPYSRFQLKQYIEQTQNDLFADRQLRLMIENGNRQVVGIVDLCSFDPLHNRAEVGIMVDKSCRRQGIGRNALALLEEHCFRYLGIHQLFAYIAVENLPSRRLFAACGYKESAVLKEWAHTFGGGYTDVLVVQKLNLS	not soluble
MMSIFRKLMPREDRFFDMFSKHSETVIKAAAALDQLLSGIDVEKNCDLIVALENQADDITREVLLAVRRSFITPFDRGDIKDLIQSMDDAIDMMHKTVKTIRLFEQSEFDPLMKEMGHEIVRAAGLIAEAIPLLNKVGANAQRLSAIAEEVTRVEGRSDDLHDQGLKDLFRRHGANGNAMAYMIGSEIYGELEKVVDRFEDVANEISGIVIENVLEHHHHHH	soluble
MMTMMATFLDVIDQKARSHYDEGKGLALRSLDPEADAAQLQQWFSMDYARFWSMQDSSVHQVRDFYTALCSSGHAGAWLGLHHGRAAFLVECYDPARDQVGEHYCVRPGDLGMHLLIAPPTEHIPGFSRAVFALVMRFMFDRLHAARVVVEPDVNNTKIHALNLSMGFVYAGLARFREKTASLAFCTRAQFEQAQRQELTQ	not soluble
MMTYEYILVRYGEMTTKGKNRSKFVSTLKDNVKFKLKKFPNIKIDATHDRMYIQLNGEDHEAVSERLKDVFGIHKFNLAMKVPSELEDIKKGALAAFLQVKGDVKTFKITVHRSYKHFPMRTMELLPEIGGHILENTEDITVDVHNPDVNVRVEIRSGYSYIMCDERMGAGGLPVGVGGKVMVLLSGGIDSPVAAYLTMKRGVSVEAVHFHSPPFTSERAKQKVIDLAQELTKYCKRVTLHLVPFTEVQKTINKEIPSSYSMTVMRRMMMRITERIAEERNALAITTGESLGQVASQTLDSMHTINEVTNYPVIRPLITMDKLEIIKIAEEIGTYDISIRPYEDCCTVFTPASPATKPKREKANRFEAKYDFTPLIDEAVANKETMVLQTVEVVAEEEKFEELF	not soluble
MMVYPVKHSPLLRQPEHFIARDELKALVQKVTHNLVNIKDETGEFLLRLDDGRVIDTKGWAGWEWTHGVGLYGMYHYYQQTGDQTMRKIIDDWFADRFAEGATTKNVNTMAPFLTLAYRYEETRNPAYLPWLETWAEWAMNEMPRTDHGGMQHITLAEENHQQMWDDTLMMTVLPLAKIGKLLNRPEYVEEATYQFLLHVQNLMDKETGLWFHGWSYDGHHNFANARWARGNSWLTIVIPDFLELLDLPENNAVRRYLVQVLNAQIAALAKCQDESGLWHTLLDDPHSYLEASATAGFAYGILKAVRKRYVERHYAQVAEKAIRGIVKHISPEGELLQTSFGTGMGHDLDFYRHIPLTSMPYGQAMAMLCLTEYLRNYF	not soluble
MMYALIVCNGSIIDYSFYRKFFDEADFIVCADGGALHLQRLGIKPDVLLGDFDSIESEHLEYYMKQNVEILKFPAEKDMTDTELAVNTAIDRGYKNIVIIGGTGTRLDHTLSNIFLLKLMLDRGVKGRIINEYNEMFLINDSTEIEAEDGCYLTLLPLTSKVEGITTEGLYYPLRGEAIEMGSTRGVSNCFVEKKARISITSGILIAIKTRE	not soluble
MNAAQVQALIRMGLPMAEDIDFRVERLDERHALARIPFHGKLVRPGGTLSGPTIMALADAAMYAVILGRLGAVEMAVTSNLNINFLSKPRPEDLLAEASILKLGRRQVVCEVGVFSQSNEEDLVAHVTGTYALPLLEHHHHHH	soluble
MNAEERFDRITRLTRRIFALPICVVTLVDASRQWFKSCQGLEVTETSRDISFCGHAINHDGIFIVNDAQMDPRFHDNPLVTQSPHIRFYAGYPLTIRGEYRVGTLCLIGNEPREFSADDIETLTDLGQMVEAELLSISLNTLDPLEHHHHHH	not soluble
